B1: recombinant human galectin-4 (natural protein)
chain: MAYVPAPGYQPTYNPTLPYYQPIPGGLNVGMSVYIQGVASEHMKRFFVNFVVGQDPGSDVAFHFNPRFDGWDKVVFNTLQGGKWGSEERKRSMPFKKGAAFELVFIVLAEHYKVVVNGNPFYEYGHRLPLQMVTHLQVDGDLQLQSINFIGGQPLRPQGPPMMPPYPGPGHCHQQLNSLPTMEGPPTFNPPVPYFGRLQGGLTARRTIIIKGYVPPTGKSFAINFKVGSSGDIALHINPRMGNGTVVRNSLLNGSWGSEEKKITHNPFGPGQFFDLSIRCGLDRFKVYANGQHLFDFAHRLSAFQRVDTLEIQGDVTLSYVQI
B2: H6 flagella (polymeric flagellin) from E. coli O127:H6 (natural protein)
chain: MAQVINTNSLSLITQNNINKNQSALSSSIERLSSGLRINSAKDDAAGQAIANRFTSNIKGLTQAARNANDGISVAQTTEGALSEINNNLQRIRELTVQASTGTNSDSDLDSIQDEIKSRLDEIDRVSGQTQFNGVNVLAKDGSMKIQVGANDGQTITIDLKKIDSDTLGLNGFNVNGKGETANTAATLKDMSGFTAAAAPGGTVGVTQYTDKSAVASSVDILNAVAGADGNKVTTSADVGFGTPAAAVTYTYNKDTNSYSAASDDISSANLAAFLNPQARDTTKATVTIGGKDQDVNIDKSGNLTAADDGAVLYMDATGNLTKNNAGGDTQATLAKVATATGAKAATIQTDKGTFTSDGTAFDGASMSIDANTFANAVKNDTYTATVGAKTYSVTTGSAAADTAYMSNGVLSDTPPTYYAQADGSITTTEDAAAGKLVYKGSDGKLTTDTTSKAESTSDPLAALDDAISQIDKFRSSLGAVQNRLDSAVTNLNNTTTNLSEAQSRIQDADYATEVSNMSKAQIIQQAGNSVLAKANQVPQQVLSLLQG
B3: H48 flagella (polymeric flagellin) from commensal E. coli K12:O175:H48 (natural protein)
chain: MAQVINTNSLSLITQNNINKNQSALSSSIERLSSGLRINSAKDDAAGQAIANRFTSNIKGLTQAARNANDGISVAQTTEGALSEINNNLQRVRELTVQATTGTNSESDLSSIQDEIKSRLDEIDRVSGQTQFNGVNVLAKNGSMKIQVGANDNQTITIDLKQIDAKTLGLDGFSVKNNDTVTTSAPVTAFGATTTNNIKLTGITLSTEAATDTGGTNPASIEGVYTDNGNDYYAKITGGDNDGKYYAVTVANDGTVTMATGATANATVTDANTTKATTITSGGTPVQIDNTAGSATANLGAVSLVKLQDSKGNDTDTYALKDTNGNLYAADVNETTGAVSVKTITYTDSSGAASSPTAVKLGGDDGKTEVVDIDGKTYDSADLNGGNLQTGLTAGGEALTAVANGKTTDPLKALDDAIASVDKFRSSLGAVQNRLDSAVTNLNNTTTNLSEAQSRIQDADYATEVSNMSKAQIIQQAGNSVLAKANQVPQQVLSLLQG

What was measured:
[1] = molecular target: B3; assay: ELISA
[2] = molecular target: B2; assay: ELISA
SEC = molecular target: the molecule itself; assay: SEC

B1
binding result [1]: binds
binding result [2]: binds

B2
binding result (SEC): binds

B3
binding result (SEC): binds

— publication doi:10.1101/2020.02.12.945204 (bioRxiv, 2020)
